The experiment deals with T1, Syndecan-1.
T1 sequence (P18827 whole entry, species assumed, looked up): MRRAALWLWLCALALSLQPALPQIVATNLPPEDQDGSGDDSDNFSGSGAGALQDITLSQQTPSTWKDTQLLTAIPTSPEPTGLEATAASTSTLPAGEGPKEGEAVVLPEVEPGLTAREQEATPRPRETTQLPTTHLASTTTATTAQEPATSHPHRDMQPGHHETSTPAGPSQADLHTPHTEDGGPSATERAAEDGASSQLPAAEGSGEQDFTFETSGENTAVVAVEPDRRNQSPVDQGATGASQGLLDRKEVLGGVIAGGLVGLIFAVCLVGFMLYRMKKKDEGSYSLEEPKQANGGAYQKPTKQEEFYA

Experimental findings from patent US9102763B2 are described below.

B1: lacritin (free lacritin released from Lac-ELP by thrombin cleavage) (ligand)
chain: MEDASSDSTGADPAQEAGTSKPNEEISGPAEPASPPETTTTAQETSAAAVQGTAKVTSSRQELNPLKSIVEKSILLTEQALAKAGKGMHGGVPGGKQFIENGSEFAQKLLKKFSLLKPWAGLVPR
Turning to B1, the minimal therapeutic concentration (β-hexosaminidase secretion, rabbit LGACs) was 10 µM.
